The values below come from patent US20260184809A1 (Genmab, published 2026).

For experiment [1], the target named is T1, recombinant cynomolgus monkey EpCAM (R&D systems, cat no. 10451-EP) (cynomolgus monkey, UniProt Q1WER1 24-265 (rhesus entry)).
T1 construct: also called cynomolgus monkey EpCAM extracellular domain
T1 sequence: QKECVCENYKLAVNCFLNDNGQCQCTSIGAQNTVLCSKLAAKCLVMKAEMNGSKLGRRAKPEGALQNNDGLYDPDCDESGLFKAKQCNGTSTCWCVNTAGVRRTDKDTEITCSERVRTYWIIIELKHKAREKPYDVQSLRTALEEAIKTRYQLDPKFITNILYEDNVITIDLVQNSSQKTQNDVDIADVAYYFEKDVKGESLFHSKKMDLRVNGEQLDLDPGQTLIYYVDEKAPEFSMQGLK
Briefly: BLI (Octet HTX); recombinant cynomolgus monkey EpCAM on anti-Penta-HIS sensors, antibody 1.56-100 nM in solution. A general note: In BLI a coated tip is dipped into the sample, and binding shifts an interference pattern.

For experiment [2], the target named is T2, His-tagged FcRn (SinoBiological, cat. no. CT009-H08H-B) (UniProt P55899 24-297; P61769 21-119).
T2 construct: also called neonatal Fc receptor
The experiment is described as follows: SPR kinetics at pH 6.0; His-tagged FcRn captured, antibody 0-100 nM as analyte. (In SPR one partner is held on a chip, and binding of the other changes the refractive index at the surface.)

Experiment [3] addresses T2, His-tagged FcRn (SinoBiological, cat. …). The experiment is described as follows: SPR kinetics at pH 6.0; His-tagged FcRn captured, antibody 0-100 nM as analyte; mean.
Experiment [4] addresses FcγRIa (CD64 Protein, Human, Recombinant (His Tag), Biotinylated; SinoBiological 10256-H08S-B) (human, UniProt P12314 16-288). The experiment is described as follows: SPR (Biacore 8K), His-tagged FcγR captured on anti-His chip, antibody as analyte, endpoint response against concentration.

T2 sequence (P55899 24-297 limits assumed, form in doubt, chain 1 of 2): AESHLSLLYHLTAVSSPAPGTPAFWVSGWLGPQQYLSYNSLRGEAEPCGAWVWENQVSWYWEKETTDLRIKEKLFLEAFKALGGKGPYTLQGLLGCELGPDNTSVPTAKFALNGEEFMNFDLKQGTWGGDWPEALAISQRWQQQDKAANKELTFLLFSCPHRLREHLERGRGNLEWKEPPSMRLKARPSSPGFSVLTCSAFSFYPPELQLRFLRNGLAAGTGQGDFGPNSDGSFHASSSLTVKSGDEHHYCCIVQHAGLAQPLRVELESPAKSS
T2 sequence (P61769 21-119 limits assumed, form in doubt, chain 2 of 2): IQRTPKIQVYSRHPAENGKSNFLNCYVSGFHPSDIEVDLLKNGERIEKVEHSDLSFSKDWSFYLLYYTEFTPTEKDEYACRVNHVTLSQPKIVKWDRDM
Chain of FcγRIa (CD64 Protein, Human, Recombinant (His Tag), Biotinylated; SinoBiological 10256-H08S-B) (P12314 16-288 limits assumed, stated change not applied): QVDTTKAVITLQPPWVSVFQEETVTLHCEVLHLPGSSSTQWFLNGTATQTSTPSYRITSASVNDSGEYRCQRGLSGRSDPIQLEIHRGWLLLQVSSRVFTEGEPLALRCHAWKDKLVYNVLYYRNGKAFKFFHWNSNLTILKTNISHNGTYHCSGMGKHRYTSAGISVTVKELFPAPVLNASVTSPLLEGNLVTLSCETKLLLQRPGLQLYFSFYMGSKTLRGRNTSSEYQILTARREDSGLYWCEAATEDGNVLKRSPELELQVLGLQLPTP

B1: BisG2amm-EpCAM-323-A3-AALT/m4-1BB-3H3-AAKR (bispecific antibody, mouse IgG2a, kappa)
heavy 1: QIQLVQSGPELKKPGETVKISCKASGYTFTNYGMNWVRQASGEGLKWMGWINTYTGEPTYGEDFKGRFAFSLETSASTAYLQINNLKNEDTATYFCARFGNYVDYWGQGTTLTVSSAKTTAPSVYPLAPVCGDTTGSSVTLGCLVKGYFPEPVTLTWNSGSLSSGVHTFPAVLQSDLYTLSSSVTVTSSTWPSQSITCNVAHPASSTKVDKKIEPRGPTIKPCPPCKCPAPNAAGGPSVFIFPPKIKDVLMISLSPMVTCVVVDVSEDDPDVQISWFVNNVEVLTAQTQTHREDYNSTLRVVSALPIQHQDWMSGKEFKCKVNNKALPAPIERTISKPKGSVRAPQVYVLPPPEEEMTKKQVTLTCMVTDFMPEDIYVEWTNNGKTELNYKNTEPVLDSDGSYLMYSKLTVEKKNWVERNSYSCSVVHEGLHNHHTTKSFSRTPG
light 1: DIVMTQAAFSNPVTLGTSASISCRSSKNLLHSNGITYLYWYLQKPGQSPHLLIYQMSNLASGVPDRFSSSGSGTDFTLRISRVEAEDVGVYYCAQNLEIPRTFGGGTKLEIKRADAAPTVSIFPPSSEQLTSGGASVVCFLNNFYPKDINVKWKIDGSERQNGVLNSWTDQDSKDSTYSMSSTLTLTKDEYERHNSYTCEATHKTSTSPIVKSFNRNEC
heavy 2: EMQLVESGGGLVQPGRSMKLSCAGSGFTLSDYGVAWVRQAPKKGLEWVAYISYAGGTTYYRESVKGRFTISRDNAKSTLYLQMDSLRSEDTATYYCTIDGYGGYSGSHWYFDFWGPGTMVTVSSAKTTAPSVYPLAPVCGDTTGSSVTLGCLVKGYFPEPVTLTWNSGSLSSGVHTFPAVLQSDLYTLSSSVTVTSSTWPSQSITCNVAHPASSTKVDKKIEPRGPTIKPCPPCKCPAPNAAGGPSVFIFPPKIKDVLMISLSPMVTCVVVDVSEDDPDVQISWFVNNVEVLTAQTQTHREDYNSTLRVVSALPIQHQDWMSGKEFKCKVNNKALPAPIERTISKPKGSVRAPQVYVLPPPEEEMTKKQVTLTCMVKDFMPEDIYVEWTNNGKTELNYKNTEPVLDSDGSYFMYSRLRVEKKNWVERNSYSCSVVHEGLHNHHTTKSFSRTPG
light 2: DIQMTQSPSLLSASVGDRVTLNCRTSQNVYKNLAWYQQKLGEAPKLLIYNANSLQAGIPSRFSGSGSGTDFTLTISSLQPEDVATYFCQQYYSGNTFGAGTNLELKRADAAPTVSIFPPSSEQLTSGGASVVCFLNNFYPKDINVKWKIDGSERQNGVLNSWTDQDSKDSTYSMSSTLTLTKDEYERHNSYTCEATHKTSTSPIVKSFNRNEC
notes: also called BsIgG2amm-EpCAM-323-A3-AALT/m4-1BB-3H3-AAKR; BisIgG2amm-EpCAM-323-A3-AALT/m4-1BB-3H3-AAKR
As for B1, the Response in experiment [1] turned out to be 0.02 nm.

B2: IgG1-b12 (wild-type Fc) (antibody)
heavy: not shown
light: EIVLTQSPGTLSLSPGERATFSCRSSHSIRSRRVAWYQHKPGQAPRLVIHGVSNRASGISDRFSGSGSGTDFTLTITRVEPEDFALYYCQVYGASSYTFGQGTKLERKRTVAAPSVFIFPPSDEQLKSGTASVVCLLNNFYPREAKVQWKVDNALQSGNSQESVTEQDSKDSTYSLSSTLTLSKADYEKHKVYACEVTHQGLSSPVTKSFNRGEC
For B2, in experiment [2], the koff (in general, a measure of how fast the partners let go of each other) turned out to be 0.0322 s⁻¹ and the kon (in general, the second-order rate constant of association) came to 1.1e+06 M⁻¹ s⁻¹. In addition, in experiment [3], the affinity, expressed as Kd, was 29 nM. For the same molecule, the EC50 (read off the curve) – broadly, the concentration needed to bring the measured effect to its halfway point – in experiment [4] is approximately 50 nM.
